Laboratory results as given in PMC6677171 (Life Science Alliance, 2019).

B6: Mis18 (S. pombe) (natural protein, UniProt Q9P802 1-194, looked up)
chain: MSQTETSHSGYIDFKKESQPSVFQCKKCFQIVGDSNAWVISHREYLSFTLSDAVENSVRVEDTFKRSDDGLCVYSELSCTRCNEVIGKVYNSTPIYLDDIRDMYTFSMDKLQAYQLGNKTVNPEGLTRYQVDLEMREDIIKLKSFCLSLYEKFELHDETLRSVKETISSLKKPKIEGKEGKKEKARTYSKRTRK
notes: Mis18, S. pombe, N-terminal YIPPEE domain and C-terminal coiled coil; 'Full-length' is said of the co-expressed complex; source: insect cells; co-expressed with Mis16 and Mis19 and co-purified, or purified alone for the pull-down

Tests used:
[1] = target: T1, Mis16 (S. pombe), full length, affinity tag removed (S. pombe, UniProt O94244 1-430); experiment: SEC-MALS; 200 μg of purified Mis16–Mis19C complex on Superose 6 Increase 10/300 coupled to a Wyatt Dawn 8+ MALS system; conditions: both partners purified
T1 construct: Mis16, S. pombe, WD40-repeat protein, homologue of human RbAp46/48; codon-optimised gene; Used where the methods or text say the tag was removed (crystals, MALLS of the untagged complex) and, by the general purification protocol, for ITC and AUC; source: insect cells (baculovirus made in Sf21, expressed in Hi5), purified (Strep-Tactin, anion exchange, TEV cleavage, SEC); not shown: double …

Mis18 (S. pombe) = target: B6; experiment: SEC; competition: preformed Mis16–Mis18–Mis19 complex challenged with peptides from the Mis19 N terminus; dissociation seen as separate Mis16–19 and Mis18 peaks; conditions: both partners purified
[2] = target: T1, Mis16 (S. pombe), full length, affinity …; experiment: AUC; sedimentation velocity of the purified co-expressed Mis16–Mis18–Mis19 complex at two concentrations; 150 mM NaCl, 25 mM Tris–HCl pH 8.0, 2 mM TCEP; 50,000 rpm, 4°C; c(s) in SEDFIT; conditions: both partners purified
[3] = target: T1, Mis16 (S. pombe), full length, affinity …; experiment: ITC; iTC200, 30°C; 50 mM Tris pH 7.5, 100 mM NaCl, 4% glycerol, 0.5 TCEP; 26 μM protein in the cell, 260 μM peptide injected; conditions: both partners purified
[4] = target: T1, Mis16 (S. pombe), full length, affinity …; experiment: ITC; competition: Mis16 preincubated with one peptide (H4α1 or Mis19α2) before titration with the second; apparent KD; conditions: both partners purified
[5] = target: the molecule itself; experiment: AUC; sedimentation velocity of the purified co-expressed Mis16–Mis18–Mis19 complex at two concentrations; 150 mM NaCl, 25 mM Tris–HCl pH 8.0, 2 mM TCEP; 50,000 rpm, 4°C; c(s) in SEDFIT

B1: Mis19C (Mis19 residues 52–112) (domain or fragment, S. pombe, UniProt O42995 52-112, looked up)
chain: PRVYETELLVLRFREFGVKDNHNHPINLHSLRSKSLIRAQGKKLDLHNRVFLRRNVRAVKM
notes: holds sites A, B and C; Cannot be expressed and purified without Mis16; also called Mis19^52-C; N-terminal truncation of Mis19; source: insect cells, co-expressed with Mis16
stoichiometry N [1]: 1

B2: Mis19^1–44 peptide (peptide, UniProt O42995 1-44, looked up)
peptide: MDLMPLEKARAIEIAFDNVFHNTKIPDNLQQFDAILKRLERRRF
notes: Mis19 (Eic1), S. pombe, residues 1–44 (motifs 1 and 2); also called wild-type peptide
binding result (Mis18 (S. pombe)): binds

B3: Mis19 (S. pombe), full length (natural protein, UniProt O42995 1-112, looked up)
chain: MDLMPLEKARAIEIAFDNVFHNTKIPDNLQQFDAILKRLERRRFIPTENQKPRVYETELLVLRFREFGVKDNHNHPINLHSLRSKSLIRAQGKKLDLHNRVFLRRNVRAVKM
notes: Mis19 (also known as Eic1), S. pombe; only handled in complex; also called Eic1; source: insect cells (MultiBac), co-expressed with Mis16 and Mis18, co-purified
binding result [2]: binds

B4: Mis19α2 peptide (Mis19 residues 97–112) (peptide, UniProt O42995 97-112, looked up)
peptide: LHNRVFLRRNVRAVKM
notes: also called Mis19 site C peptide
Kd [3]: 8 nM | apparent KD with Mis16 preincubated with H4α1 [4]: 2500 nM

B5: Mis19 C-terminal peptide (residues 97–112) F102S (peptide, UniProt O42995 97-112, looked up)
peptide: LHNRVSLRRNVRAVKM
notes: the text ties the value to the F102S (eic1-1) mutant; also called F102 mutant; eic1-1 mutation
Kd [3]: ~301 nM

B6
stoichiometry N [5]: 4
